Kd data for 4 molecules are collected here from paper PMC3268024, “Role of Linkers between Zinc Fingers in Spacing Recognition by Plant TFIIIA-Type Zinc-Finger Proteins”.

A word on the Kd: it is the free concentration of one partner at which half of the binding sites on the other are occupied at equilibrium, for simple one-to-one binding.

To fix the notation:
B1: AGT-10-ACT (dsDNA)
DNA 1: CTCGAGAAATTTCCCGGAATTCCAGTGGGAAATTTCACTGGCCGGAATTTCCCGGGGGGATCC
DNA 2: GGATCCCCCCGGGAAATTCCGGCCAGTGAAATTTCCCACTGGAATTCCGGGAAATTTCTCGAG
B2: ACT-10-AGT (dsDNA)
DNA 1: CTCGAGAAATTTCCCGGAATTCCACTGGGAAATTTCAGTGGCCGGAATTTCCCGGGGGGATCC
DNA 2: GGATCCCCCCGGGAAATTCCGGCCACTGAAATTTCCCAGTGGAATTCCGGGAAATTTCTCGAG
B3: AGT-5-AGT (dsDNA)
DNA 1: CTCGAGAAATTTCCCGGAATTCCAGTGATCCAGTGGCCGGAATTTCCCGGGGGGATCC
DNA 2: GGATCCCCCCGGGAAATTCCGGCCACTGGATCACTGGAATTCCGGGAAATTTCTCGAG
B4: AGT-5-ACT (dsDNA)
DNA 1: CTCGAGAAATTTCCCGGAATTCCAGTGATCCACTGGCCGGAATTTCCCGGGGGGATCC
DNA 2: GGATCCCCCCGGGAAATTCCGGCCAGTGGATCACTGGAATTCCGGGAAATTTCTCGAG

This series addresses T1, ZPT2-14ZF (UniProt O22086 41-117).
T1 sequence: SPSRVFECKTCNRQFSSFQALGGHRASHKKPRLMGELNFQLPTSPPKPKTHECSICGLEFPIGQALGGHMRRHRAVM
The series can be described thus: EMSA; 25 mM HEPES-KOH pH 7.6, 40 mM KCl, 0.1% NP-40, 10 uM ZnCl2, 1 mg/mL BSA, 10% glycerol, 10 ug/mL poly(dI-dC), 1 mM DTT, 0.15 nM probe, 25 min at 20 C. Conditions: protein: recombinant; tags: MBP fusion cleaved with TEV protease; untagged; label: 32P end. For orientation: A gel shift assay detects complexes by their altered migration in electrophoresis.
Turning to B1, the Kd was found to be 10.4 ± 1.6 nM. Turning to B2, the dissociation constant (Kd) worked out at 11.6 ± 1.9 nM.

On to B3, for which the Kd came to 9.1 ± 1.2 nM. The value for B4 was 21.7 ± 3.4 nM.
